# Results published in article PMC10947486.
# Residue numbers refer to the chain shown, from its start. Names may count otherwise.
# B1: Aspartate/asparagine-β-hydroxylase (AspH) (Homo sapiens; H679A) (protein)
# chain: RKTDDPEQKAKVKKKKPKLLNKFDKTIKAELDAAEKLRKRGKIEEAVNAFKELVRKYPQSPRARYGKAQCEDDLAEKRRSNEVLRGAIETYQEVASLPDVPADLLKLSLKRRSDRQQFLGHMRGSLLTLQRLVQLFPNDTSLKNDLGVGYLLIGDNDNAKKVYEEVLSVTPNDGFAKVHYGFILKAQNKIAESIPYLKEGIESGDPGTDDGRFYFHLGDAMQRVGNKEAYKWYELGHKRGHFASVWQRSLYNVNGLKAQPWWTPKETGYTELVKSLERNWKLIRDEGLAVMDKAKGLFLPEDENLREKGDWSQFTLWQQGRRNENACKGAPKTCTLLEKFPETTGCRRGQIKYSIMHPGTHVWPATGPTNCRLRMHLGLVIPKEGCKIRCANETKTWEEGKVLIFDDSFEHEVWQDASSFRLIFIVDVWHPELTPQQRRSLPAI
# B2: Aspartate/asparagine-β-hydroxylase (AspH) (Homo sapiens; H725A) (protein)
# chain: B1 chain with A365H, H411A
# B3: Aspartate/asparagine-β-hydroxylase (AspH) (Homo sapiens) (protein)
# chain: B1 chain with A365H
# Substrate: O=C(O)CCC(=O)C(=O)O
# Test: purified protein
# Conditions: Fe(II) active site Fe(II)
Protein,Km,kcat,kcat/Km
B1,109 ± 20 µM,0.18 s⁻¹,1700 M⁻¹ s⁻¹
B2,211 ± 65 µM,0.08 s⁻¹,380 M⁻¹ s⁻¹
B3,1.1 ± 0.4 µM,0.31 s⁻¹,282000 M⁻¹ s⁻¹
